Measured values from article PMC7034192.

Experiments:
M1R L131A = M1R L131A (UniProt P11229)
M2R L129A = M2R L129A (UniProt P08172)
Sequence of UniProt P08172 (P08172 whole entry L129A): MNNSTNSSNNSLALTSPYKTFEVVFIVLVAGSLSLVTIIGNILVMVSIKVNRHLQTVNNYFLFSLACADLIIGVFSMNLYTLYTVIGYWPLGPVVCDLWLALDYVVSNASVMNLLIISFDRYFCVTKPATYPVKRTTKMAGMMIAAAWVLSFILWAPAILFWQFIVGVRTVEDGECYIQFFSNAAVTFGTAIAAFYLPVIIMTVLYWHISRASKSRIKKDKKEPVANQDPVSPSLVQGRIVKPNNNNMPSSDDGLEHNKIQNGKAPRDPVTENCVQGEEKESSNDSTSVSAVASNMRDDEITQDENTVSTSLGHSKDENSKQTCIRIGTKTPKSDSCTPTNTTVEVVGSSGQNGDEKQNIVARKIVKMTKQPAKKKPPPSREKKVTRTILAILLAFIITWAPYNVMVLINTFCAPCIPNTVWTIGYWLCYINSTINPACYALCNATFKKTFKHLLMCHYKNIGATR

Substance	coupling with G11, percent of wild type (fig. S10) (% of wild type) (M1R L131A)	coupling to GoA, percent of wild type (fig. S10) (% of wild type) (M2R L129A)
G_(11iN) heterotrimer (Gα_(11iN), Gβ1, Gγ2) (from UniProt P63096 1-29; P29992 36-359; P62873 2-340; P59768 1-71) (complex)	17	
G_(oAiN) heterotrimer (Gα_(oAiN), Gβ1, Gγ2) (from UniProt P09471 1-354; P62873 2-340; P59768 1-71) (complex)		49
